Measurements as given in paper PMC10980815, “Cell surface patching via CXCR4-targeted nanothreads for cancer metastasis inhibition” (Nature Communications, 2024).
Ends that are not written are not given here. HPMA copolymer = HPMA copolymer made by RAFT copolymerization of HPMA with N-(3-aminopropyl)methacrylamide (APMA), bearing maleimide groups for grafting

Experiment: Pharmacokinetics at each cycle of a four-round treatment regimen
Format: in vivo, female mice
Design: PK curves: unit not given here

Substance “P-CM2-Cy3: Cy3-labeled P-CM2 (C(HPMA copolymer)YGGEVSALEKEVSALEKKNSALEKEVSALEKEVSALEK; also: Cy3 label on conjugate, position not given here)” has a PK curves (Round 1, Time 0.041667 Day, replicate 1) of 163.747, a PK curves (Round 1, Time 0.041667 Day, replicate 2) of 180.755 and a PK curves (Round 1, Time 0.041667 Day, replicate 3) of 215.82. The PK curves (Round 1, Time 0.041667 Day, replicate 4) was 227.965, the PK curves (Round 1, Time 0.041667 Day, replicate 5) was 272.14 and the PK curves (Round 1, Time 0.083333 Day, replicate 1) was 152.881. For the same substance, the PK curves (Round 1, Time 0.083333 Day, replicate 2) was 155.096, the PK curves (Round 1, Time 0.083333 Day, replicate 3) was 158.378 and the PK curves (Round 1, Time 0.083333 Day, replicate 4) was 173.813. The PK curves (Round 1, Time 0.083333 Day, replicate 5) was 181.609, the PK curves (Round 1, Time 0.166667 Day, replicate 1) was 117.124 and the PK curves (Round 1, Time 0.166667 Day, replicate 2) was 133.5. It also gave a PK curves (Round 1, Time 0.166667 Day, replicate 3) of 138.292, a PK curves (Round 1, Time 0.166667 Day, replicate 4) of 141.138 and a PK curves (Round 1, Time 0.166667 Day, replicate 5) of 149.467. The PK curves (Round 1, Time 0.25 Day, replicate 1) was 99.512, the PK curves (Round 1, Time 0.25 Day, replicate 2) was 115.311 and the PK curves (Round 1, Time 0.25 Day, replicate 3) was 115.69. For the same substance, the PK curves (Round 1, Time 0.25 Day, replicate 4) was 124.268, the PK curves (Round 1, Time 0.25 Day, replicate 5) was 126.538 and the PK curves (Round 1, Time 0.333333 Day, replicate 1) was 72.638. For the same substance, the PK curves (Round 1, Time 0.333333 Day, replicate 2) was 80.332, the PK curves (Round 1, Time 0.333333 Day, replicate 3) was 81.864 and the PK curves (Round 1, Time 0.333333 Day, replicate 4) was 87.045. It also gave a PK curves (Round 1, Time 0.333333 Day, replicate 5) of 96.736, a PK curves (Round 1, Time 0.5 Day, replicate 1) of 53.965 and a PK curves (Round 1, Time 0.5 Day, replicate 2) of 58.639. For the same substance, the PK curves (Round 1, Time 0.5 Day, replicate 3) was 59.336, the PK curves (Round 1, Time 0.5 Day, replicate 4) was 66.884 and the PK curves (Round 1, Time 0.5 Day, replicate 5) was 78.186. For the same substance, the PK curves (Round 1, Time 1 Day, replicate 1) was 21.997, the PK curves (Round 1, Time 1 Day, replicate 2) was 25.01 and the PK curves (Round 1, Time 1 Day, replicate 3) was 29.67. It also gave a PK curves (Round 1, Time 1 Day, replicate 4) of 31.811, a PK curves (Round 1, Time 1 Day, replicate 5) of 36.626 and a PK curves (Round 1, Time 2 Day, replicate 1) of 11.902. It also gave a PK curves (Round 1, Time 2 Day, replicate 2) of 17.163, a PK curves (Round 1, Time 2 Day, replicate 3) of 19.932 and a PK curves (Round 1, Time 2 Day, replicate 4) of 21.481. For the same substance, the PK curves (Round 1, Time 2 Day, replicate 5) was 24.221, the PK curves (Round 1, Time 3 Day, replicate 1) was 3.355 and the PK curves (Round 1, Time 3 Day, replicate 2) was 5.764. For the same substance, the PK curves (Round 1, Time 3 Day, replicate 3) was 7.718, the PK curves (Round 1, Time 3 Day, replicate 4) was 11.103 and the PK curves (Round 1, Time 3 Day, replicate 5) was 11.877. For the same substance, the AUC0-t (Round 1, same) was 2910.449 ± 479.173 ng·h/mL, the “AUC0-∞” value (Round 1, same) was 3143.497 ± 607.036 ng·h/mL and the MRT0-t (Round 1, same) was 17.874 ± 1.409 h. The “MRT0-∞” value (Round 1, same) was 23.669 ± 4.167 h, the T1/2z (Round 1 of four-round Nanothread-1→Nanothread-2 regimen, blood fluorescence, DAS 2.0, mean ± SD, n = 5) was 19.104 ± 3.483 h and the PK curves (Round 2, Time 0.041667 Day, replicate 1) was 166.289. For the same substance, the PK curves (Round 2, Time 0.041667 Day, replicate 2) was 169.535, the PK curves (Round 2, Time 0.041667 Day, replicate 3) was 192.765 and the PK curves (Round 2, Time 0.041667 Day, replicate 4) was 283.095. It also gave a PK curves (Round 2, Time 0.041667 Day, replicate 5) of 308.888, a PK curves (Round 2, Time 0.083333 Day, replicate 1) of 129.263 and a PK curves (Round 2, Time 0.083333 Day, replicate 2) of 143.311. For the same substance, the PK curves (Round 2, Time 0.083333 Day, replicate 3) was 159.105, the PK curves (Round 2, Time 0.083333 Day, replicate 4) was 167.258 and the PK curves (Round 2, Time 0.083333 Day, replicate 5) was 213.448. It also gave a PK curves (Round 2, Time 0.166667 Day, replicate 1) of 118.029, a PK curves (Round 2, Time 0.166667 Day, replicate 2) of 120.594 and a PK curves (Round 2, Time 0.166667 Day, replicate 3) of 139.935. It also gave a PK curves (Round 2, Time 0.166667 Day, replicate 4) of 140.364, a PK curves (Round 2, Time 0.166667 Day, replicate 5) of 140.694 and a PK curves (Round 2, Time 0.25 Day, replicate 1) of 88.6458. The PK curves (Round 2, Time 0.25 Day, replicate 2) was 101.112, the PK curves (Round 2, Time 0.25 Day, replicate 3) was 104.483 and the PK curves (Round 2, Time 0.25 Day, replicate 4) was 106.877. For the same substance, the PK curves (Round 2, Time 0.25 Day, replicate 5) was 110.672, the PK curves (Round 2, Time 0.333333 Day, replicate 1) was 69.5736 and the PK curves (Round 2, Time 0.333333 Day, replicate 2) was 78.4476. It also gave a PK curves (Round 2, Time 0.333333 Day, replicate 3) of 88.3019, a PK curves (Round 2, Time 0.333333 Day, replicate 4) of 89.2405 and a PK curves (Round 2, Time 0.333333 Day, replicate 5) of 90.1636. For the same substance, the PK curves (Round 2, Time 0.5 Day, replicate 1) was 43.1833, the PK curves (Round 2, Time 0.5 Day, replicate 2) was 45.6973 and the PK curves (Round 2, Time 0.5 Day, replicate 3) was 51.9942. The PK curves (Round 2, Time 0.5 Day, replicate 4) was 68.9589, the PK curves (Round 2, Time 0.5 Day, replicate 5) was 80.0862 and the PK curves (Round 2, Time 1 Day, replicate 1) was 16.0352. For the same substance, the PK curves (Round 2, Time 1 Day, replicate 2) was 27.0822, the PK curves (Round 2, Time 1 Day, replicate 3) was 31.0181 and the PK curves (Round 2, Time 1 Day, replicate 4) was 36.116. The PK curves (Round 2, Time 1 Day, replicate 5) was 40.972, the PK curves (Round 2, Time 2 Day, replicate 1) was 12.4543 and the PK curves (Round 2, Time 2 Day, replicate 2) was 13.9537. The PK curves (Round 2, Time 2 Day, replicate 3) was 16.9804, the PK curves (Round 2, Time 2 Day, replicate 4) was 22.3399 and the PK curves (Round 2, Time 2 Day, replicate 5) was 24.6061. For the same substance, the PK curves (Round 2, Time 3 Day, replicate 1) was 4.968, the PK curves (Round 2, Time 3 Day, replicate 2) was 5.058 and the PK curves (Round 2, Time 3 Day, replicate 3) was 5.667. It also gave a PK curves (Round 2, Time 3 Day, replicate 4) of 9.298, a PK curves (Round 2, Time 3 Day, replicate 5) of 13.6533 and an AUC0-t (Round 2, same) of 2845.842 ± 670.957 ng·h/mL. The “AUC0-∞” value (Round 2, same) was 3070.777 ± 804.281 ng·h/mL, the MRT0-t (Round 2, same) was 17.76 ± 1.068 h and the “MRT0-∞” value (Round 2, same) was 23.374 ± 3.332 h. It also gave a T1/2z (Round 2, same) of 18.965 ± 3.022 h.
